In publication PMC2704923:

How the values were obtained:
CENP-N (Homo sapiens) = test: EMSA
[1] = molecular target: H3^CATD mononucleosome, reconstituted with alpha-satellite DNA; test: native gel or EMSA
[2] = system: CENP-N K15A (Homo sapiens); test: EMSA
[3] = system: CENP-N R124A (Homo sapiens); test: EMSA

Sequence of CENP-N (wildtype), 35S-labelled, in vitro translated (Q96H22 whole entry): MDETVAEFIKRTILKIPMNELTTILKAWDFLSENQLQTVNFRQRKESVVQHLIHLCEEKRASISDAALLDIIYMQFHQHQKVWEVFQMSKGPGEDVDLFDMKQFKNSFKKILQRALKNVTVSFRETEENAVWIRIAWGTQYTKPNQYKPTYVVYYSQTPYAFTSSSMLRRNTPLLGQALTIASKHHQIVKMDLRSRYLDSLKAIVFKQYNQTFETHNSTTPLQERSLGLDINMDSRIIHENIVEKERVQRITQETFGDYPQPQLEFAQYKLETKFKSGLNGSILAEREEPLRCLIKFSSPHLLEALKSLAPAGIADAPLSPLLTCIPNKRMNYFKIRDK

With H3CATD nucleosome, alpha-satellite the Kd (CENP-N (Homo sapiens)) was 163 nM.

“CENP-N (wildtype), 35S-labelled, in vitro translated (from UniProt Q96H22 1-339) (natural protein)” was tested, and the Kd [1] was 163 nM.

CENP-A nucleosome, alpha-satellite showed a Kd [2] of 297 nM and a Kd [3] of 72 nM.
